Values of other authors as cited in paper PMC7843923.

Tests used:
[1] = target: Unc5D (UniProt Q6UXZ4)
[2] = target: Latrophilin3 (UniProt Q9HAR2)
UniProt Q9HAR2, sequence (Q9HAR2 20-862): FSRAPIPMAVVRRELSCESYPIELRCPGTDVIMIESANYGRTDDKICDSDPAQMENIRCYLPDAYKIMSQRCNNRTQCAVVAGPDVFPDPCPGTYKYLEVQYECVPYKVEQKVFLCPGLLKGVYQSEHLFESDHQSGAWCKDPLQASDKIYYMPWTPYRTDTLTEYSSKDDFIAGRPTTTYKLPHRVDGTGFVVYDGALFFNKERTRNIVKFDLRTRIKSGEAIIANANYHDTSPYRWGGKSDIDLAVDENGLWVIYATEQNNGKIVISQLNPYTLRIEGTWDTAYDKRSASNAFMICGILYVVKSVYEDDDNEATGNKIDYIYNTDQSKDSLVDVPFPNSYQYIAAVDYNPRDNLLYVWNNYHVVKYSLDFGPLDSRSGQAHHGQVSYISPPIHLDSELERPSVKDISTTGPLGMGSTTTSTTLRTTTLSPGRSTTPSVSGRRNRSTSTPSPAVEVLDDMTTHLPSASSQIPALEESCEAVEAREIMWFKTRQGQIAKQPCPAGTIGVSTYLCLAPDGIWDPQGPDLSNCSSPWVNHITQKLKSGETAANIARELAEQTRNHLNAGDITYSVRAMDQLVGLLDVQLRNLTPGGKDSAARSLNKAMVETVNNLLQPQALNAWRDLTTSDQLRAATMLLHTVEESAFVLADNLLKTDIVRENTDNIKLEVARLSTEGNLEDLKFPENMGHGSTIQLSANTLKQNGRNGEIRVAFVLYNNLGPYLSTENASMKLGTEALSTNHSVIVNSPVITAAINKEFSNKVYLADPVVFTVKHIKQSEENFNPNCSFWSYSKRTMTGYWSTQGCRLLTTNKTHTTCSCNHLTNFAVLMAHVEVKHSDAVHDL

UniProt Q6UXZ4, sequence (Q6UXZ4 33-379): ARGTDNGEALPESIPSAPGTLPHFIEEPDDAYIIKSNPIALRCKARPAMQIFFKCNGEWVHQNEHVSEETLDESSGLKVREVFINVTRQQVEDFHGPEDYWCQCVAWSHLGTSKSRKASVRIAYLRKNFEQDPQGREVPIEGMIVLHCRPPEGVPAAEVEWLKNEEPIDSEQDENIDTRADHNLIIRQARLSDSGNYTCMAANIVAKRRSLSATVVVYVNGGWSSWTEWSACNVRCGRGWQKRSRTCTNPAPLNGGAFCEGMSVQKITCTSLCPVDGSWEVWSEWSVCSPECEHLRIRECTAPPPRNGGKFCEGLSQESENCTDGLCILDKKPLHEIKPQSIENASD

Row | Kd [1] | Kd [2] | Substance
1 | 310 nM | – | FLRT2 (from UniProt O43155)
2 | – | 40 nM | FLRT (from UniProt Q9NZU0)
